Source: patent US20060148715A1, “Structural requirements for STAT3 binding and recruitment to phosphotyrosine ligands” (BAYLOR COLLEGE OF MEDICINE, priority 2004, published 2006)
Read-outs that look alike come from different tables or passages of the source. One block for each molecule: values may come before it. Non-standard residues stand in square brackets, D forms with d. Residues, ends and D or L forms follow the SMILES beside them. No end group written: not given here. *: point of attachment. d‑Biotin‑LC = N-terminal biotin (d-Biotin-LC), O=C(CCCC[C@@H]1SC[C@@H]2NC(=O)N[C@@H]21)NCCCCCC(=O)*; Biotin = O=C1N[C@H]2[C@H](CS[C@H]2CCCCC(=O)*)N1; pY = N[C@@H](Cc1ccc(OP(=O)(O)O)cc1)C(=O)O; Ahx = NCCCCCC(=O)O

Columns and labels:
wild type Stat3 = target: T1, wild type Stat3 (Homo sapiens, UniProt P40763); test: Mirror resonance affinity assay (resonant mirror biosensor); assay type: binding; conditions: for Kd: wild type Stat3 binding to G-CSFR phosphododecapeptides, ratio kdiss/kass, read-out: KD
T1 construct: made in house; host or cells: Sf9 insect cells (baculovirus, pFastBac1)
T1 sequence (P40763 whole entry): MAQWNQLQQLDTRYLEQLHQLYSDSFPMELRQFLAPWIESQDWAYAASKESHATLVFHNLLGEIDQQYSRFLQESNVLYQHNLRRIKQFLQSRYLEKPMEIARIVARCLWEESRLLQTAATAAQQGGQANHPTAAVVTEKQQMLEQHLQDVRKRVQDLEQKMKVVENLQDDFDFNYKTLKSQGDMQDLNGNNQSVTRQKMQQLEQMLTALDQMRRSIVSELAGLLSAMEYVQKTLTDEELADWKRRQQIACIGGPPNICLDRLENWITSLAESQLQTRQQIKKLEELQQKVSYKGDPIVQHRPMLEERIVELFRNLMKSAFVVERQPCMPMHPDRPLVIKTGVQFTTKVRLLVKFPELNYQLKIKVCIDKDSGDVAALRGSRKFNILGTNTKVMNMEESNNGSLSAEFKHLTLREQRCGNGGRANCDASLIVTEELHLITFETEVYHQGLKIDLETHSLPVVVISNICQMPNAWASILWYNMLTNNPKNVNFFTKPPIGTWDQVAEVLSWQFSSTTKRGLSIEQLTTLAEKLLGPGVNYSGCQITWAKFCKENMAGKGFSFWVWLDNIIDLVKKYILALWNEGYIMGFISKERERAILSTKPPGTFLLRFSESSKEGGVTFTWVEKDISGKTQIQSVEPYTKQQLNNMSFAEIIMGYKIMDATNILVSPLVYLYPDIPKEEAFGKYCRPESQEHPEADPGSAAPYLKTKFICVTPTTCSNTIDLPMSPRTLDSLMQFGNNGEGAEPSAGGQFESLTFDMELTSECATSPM
Method: (§1) Kinetics experiments were performed using an lasys Auto+ resonant mirror biosensor (Affinity Sensor, Paramus, N.J.) (see Sadowski et. al, 1986). Briefly, two-welled cuvettes coated on the bottom of each well with biotin were purchased from Affinity Sensor and prepared for immobilization of biotinylated peptides by coating each surface with 0.04 mg/ml NeutrAvidin (Pierce) and washing with PBS-T (20 mM Na Phosphate, 0.05% Tween-20). Biotinylated peptide (5 μg) was added into each well—experimental peptide to one well and control peptide to the other—and change in arc seconds monitored simultaneously in both wells using the biosensor until stable followed by washing with PBS-T. Real-time binding of Stat3 was conducted at 25° C. at a stir speed of 70 for 10 min starting at the lowest concentration of Stat3. The wells were washed out with three changes of 60 μl PBS-T, and dissociation was allowed to proceed for 5 min. Each well bottom was regenerated by washing with […] of 100 mM formic acid for 2 min and equilibrated with PBS-T for the next round of association assay. Data were collected automatically and analyzed with the FASTplot and GraFit software (see Sheinerman et. al, 2003).
(§2) Mirror resonance affinity assay. Two cells of a biotin-coated cuvette pretreated with saturating amounts of NeutrAvidin. One well of the cuvette was pretreated with biotinylated phosphopeptide based on Y1068 (pY1068, left panel), while the other well was pretreated with biotinylated non-phosphorylated peptide Y1068 (Y1068, right panel) as a control for non-specific binding. Wild type or mutated Stat3 protein was added in the concentrations indicated to each of the two cells and mirror resonance measurements recorded continuously for 10 min as shown.
To obtain quantitative kinetic information about the binding of Stat3 to G-CSFR Y704 and Y744 including association rates (kass), disassociation rates (kdiss) and dissociation equilibrium constants (KD), real-time affinity measurements using a mirror resonance biosensor were performed. The biosensor exploits surface plasmon resonance to measure in real time the alteration in the angle of a laser light reflected from a surface upon which binding events are occurring. Biotinylated peptides were immobilized onto the bottom surface of cuvette wells pre-coated with NeutrAvidin. The interaction of peptides with Stat3 added at different concentrations was measured in real time as altered deflection of a laser light striking the bottom surface of the cuvette; the alterations in the deflection angle measured in arc seconds was analyzed with GraFit software. […] The slightly lower KD for Y704 vs. Y744 is attributable to a faster association rate of Stat3 binding to this phosphododecapeptide.

[1] = target: pY1068 phosphododecapeptide (EGFR); test: mirror resonance biosensor, biotinylated peptide on NeutrAvidin, Stat3 in solution
[2] = target: pY704 phosphododecapeptide (G-CSFR) (human); test: as above
[3] = target: pY744 phosphododecapeptide (G-CSFR) (human); test: as above
Stat3-3M [4] = target: T2, Stat3-3M (Homo sapiens, UniProt P40763, E638L/Y640F/Y657F); test: Mirror resonance affinity assay (resonant mirror biosensor); assay type: binding; conditions: Stat3-3M binding to G-CSFR phosphododecapeptides; ratio kdiss/kass; read-out: KD
T2 construct: made in house; host or cells: Sf9 insect cells (baculovirus, pFastBac1)
T2 sequence (P40763 whole entry E638L/Y640F/Y657F): as the sequence (P40763 whole entry) above, with E638L, Y640F, Y657F counted along it
Method: as §1, §2

[5] = target: T3, wild type Stat3 (recombinant human Stat3alpha with N-terminal 6-histidine tag) (human, UniProt P40763 1-770); test: peptide pull-down: biotinylated peptide on NeutrAvidin agarose, purified His-tagged Stat3 protein added, bound protein immunoblotted with Stat3 mAb
T3 construct: Expressed in Sf9 cells and purified on Ni-NTA for peptide assays; expressed from pcDNA3.1 in 293T cells for the G-CSFR co-immunoprecipitation; also called WT; purified Stat3
T3 sequence (P40763 other isoform, or with tags, fused parts or gaps limits assumed): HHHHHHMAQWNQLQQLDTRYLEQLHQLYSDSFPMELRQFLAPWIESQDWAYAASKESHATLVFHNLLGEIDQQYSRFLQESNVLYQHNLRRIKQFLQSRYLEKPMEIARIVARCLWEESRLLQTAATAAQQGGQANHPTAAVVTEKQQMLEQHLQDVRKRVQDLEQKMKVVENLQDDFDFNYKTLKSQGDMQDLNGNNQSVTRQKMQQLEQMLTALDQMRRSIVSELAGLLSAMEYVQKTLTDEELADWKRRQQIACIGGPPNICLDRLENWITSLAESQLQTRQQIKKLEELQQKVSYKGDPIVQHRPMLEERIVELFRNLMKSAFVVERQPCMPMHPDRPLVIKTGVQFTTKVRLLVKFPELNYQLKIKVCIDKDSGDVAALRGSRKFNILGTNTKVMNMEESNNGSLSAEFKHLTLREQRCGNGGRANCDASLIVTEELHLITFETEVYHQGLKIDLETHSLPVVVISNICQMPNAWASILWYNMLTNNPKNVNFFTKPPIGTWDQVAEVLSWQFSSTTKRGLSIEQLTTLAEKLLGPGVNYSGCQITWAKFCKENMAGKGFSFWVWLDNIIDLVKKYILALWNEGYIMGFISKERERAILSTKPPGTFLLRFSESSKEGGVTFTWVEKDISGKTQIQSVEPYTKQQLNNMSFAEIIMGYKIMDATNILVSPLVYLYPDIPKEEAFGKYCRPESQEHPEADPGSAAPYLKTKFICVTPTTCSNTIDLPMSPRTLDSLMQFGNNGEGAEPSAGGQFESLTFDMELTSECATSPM

Stat3-3M [6] = target: T4, Stat3-3M (human, UniProt P40763 1-770, limits assumed); test: as above
T4 sequence (P40763 other isoform, or with tags, fused parts or gaps limits assumed): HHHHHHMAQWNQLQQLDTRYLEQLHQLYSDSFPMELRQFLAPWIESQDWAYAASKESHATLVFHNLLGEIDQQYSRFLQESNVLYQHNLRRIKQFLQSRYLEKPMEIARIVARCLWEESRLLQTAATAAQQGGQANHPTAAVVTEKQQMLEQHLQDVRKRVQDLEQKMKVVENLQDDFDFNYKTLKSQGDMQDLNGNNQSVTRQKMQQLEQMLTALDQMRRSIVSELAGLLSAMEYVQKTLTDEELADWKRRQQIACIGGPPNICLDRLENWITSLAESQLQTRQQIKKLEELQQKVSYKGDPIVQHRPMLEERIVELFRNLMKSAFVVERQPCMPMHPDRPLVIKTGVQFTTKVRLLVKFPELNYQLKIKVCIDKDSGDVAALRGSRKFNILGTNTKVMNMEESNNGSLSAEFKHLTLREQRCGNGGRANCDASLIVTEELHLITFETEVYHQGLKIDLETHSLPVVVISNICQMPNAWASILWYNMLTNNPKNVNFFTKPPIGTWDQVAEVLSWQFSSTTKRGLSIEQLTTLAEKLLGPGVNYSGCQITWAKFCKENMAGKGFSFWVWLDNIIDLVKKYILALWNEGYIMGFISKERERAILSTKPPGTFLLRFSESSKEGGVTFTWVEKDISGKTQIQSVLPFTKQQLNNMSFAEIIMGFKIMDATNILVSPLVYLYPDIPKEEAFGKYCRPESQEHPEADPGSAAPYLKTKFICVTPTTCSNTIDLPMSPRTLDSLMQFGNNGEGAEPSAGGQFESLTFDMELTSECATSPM

Stat3-E638P [7] = target: T5, Stat3-E638P (human, UniProt P40763 1-770); test: as above
T5 construct: Produced in Sf9 cells; CD spectrum essentially identical to wild type
T5 sequence (P40763 other isoform, or with tags, fused parts or gaps E638P E638P limits assumed): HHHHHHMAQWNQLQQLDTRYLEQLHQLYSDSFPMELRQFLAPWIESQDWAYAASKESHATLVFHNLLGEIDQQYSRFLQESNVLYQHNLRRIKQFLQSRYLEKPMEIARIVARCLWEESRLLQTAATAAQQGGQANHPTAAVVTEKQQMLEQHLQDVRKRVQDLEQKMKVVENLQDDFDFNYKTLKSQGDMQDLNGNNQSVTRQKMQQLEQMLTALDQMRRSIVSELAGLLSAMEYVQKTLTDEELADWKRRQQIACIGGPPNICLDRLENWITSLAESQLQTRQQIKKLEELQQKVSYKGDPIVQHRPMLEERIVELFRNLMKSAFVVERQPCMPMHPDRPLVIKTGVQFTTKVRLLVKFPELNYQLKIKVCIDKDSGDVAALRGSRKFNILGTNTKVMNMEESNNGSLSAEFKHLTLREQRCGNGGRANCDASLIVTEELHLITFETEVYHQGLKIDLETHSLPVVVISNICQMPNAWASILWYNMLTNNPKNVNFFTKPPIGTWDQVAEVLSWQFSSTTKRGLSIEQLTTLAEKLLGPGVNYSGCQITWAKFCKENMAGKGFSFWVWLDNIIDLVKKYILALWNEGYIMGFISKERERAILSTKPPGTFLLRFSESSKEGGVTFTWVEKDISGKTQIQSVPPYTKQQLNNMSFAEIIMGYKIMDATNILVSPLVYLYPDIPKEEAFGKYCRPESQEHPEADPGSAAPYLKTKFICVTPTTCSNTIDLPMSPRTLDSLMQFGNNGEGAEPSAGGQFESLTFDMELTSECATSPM

[8] = target: T3, wild type Stat3 (recombinant human …); test: as above; remark: listed apart in the source
Stat3-3M [9] = target: T4, Stat3-3M; test: as above; remark: listed apart in the source
Stat3-4M = Stat3-4M (human, UniProt P40763 1-770, limits assumed); test: as above
Stat3-4M, sequence (P40763 other isoform, or with tags, fused parts or gaps limits assumed): as the sequence (P40763 other isoform, or with tags, fused parts or gaps E638P E638P limits assumed) above, with P644E, Y663F, C693A, S697A, Q698L counted along it

Stat3-6M = Stat3-6M (human, UniProt P40763 1-770, limits assumed); test: as above
Stat3-6M, sequence (P40763 other isoform, or with tags, fused parts or gaps limits assumed): as the sequence (P40763 other isoform, or with tags, fused parts or gaps E638P E638P limits assumed) above, with P644L, Y646F, Y663F, C693A, S697A, Q698L counted along it

Stat3-E638P [10] = target: T5, Stat3-E638P; test: as above; remark: listed apart in the source
[11] = target: T3, wild type Stat3 (recombinant human …); test: as above; remark: listed apart in the source
Stat3-E638P [12] = target: T5, Stat3-E638P; test: mirror resonance biosensor: biotinylated peptide on NeutrAvidin-coated cuvette, Stat3 protein in solution, association followed for about 10 min
Method: as §1, with “Biotinylated peptide (5 μg) was added into each well—experimental peptide to one well and control peptide to the other—and change in arc seconds monitored simultaneously in both wells using the biosensor until stable followed by washing with PBS-T. Real-time binding of Stat3 was conducted at 25° C. at a stir speed of 70 for 10 min starting at the lowest concentration of Stat3.” left out
as §2, with “binding.” for “binding. Wild type or mutated Stat3 protein was added in the concentrations indicated to each of the two cells and mirror resonance measurements recorded continuously for 10 min as shown.”

[13] = target: T3, wild type Stat3 (recombinant human …); test: as above
Method: as §1, with “Biotinylated peptide (5 μg) was added into each well—experimental peptide to one well and control peptide to the other—and change in arc seconds monitored simultaneously in both wells using the biosensor until stable followed by washing with PBS-T. Real-time binding of Stat3 was conducted at 25° C. at a stir speed of 70 for 10 min starting at the lowest concentration of Stat3.” left out
as §2, with “binding.” for “binding. Wild type or mutated Stat3 protein was added in the concentrations indicated to each of the two cells and mirror resonance measurements recorded continuously for 10 min as shown.”

Stat3 binding in real-time resonance mirror affinity assay (wild type Stat3; wild type Stat3): undetectable
Molecule: LPVPE(pY)INRSVP (LPVPE[pY]INRSVP) [Y1068 Q-to-R PDP]

Kd [1]: 223 nM
Kd [2]: 703 nM
Kd [3]: 950 nM
Molecule: wild type Stat3 (recombinant human Stat3alpha with N-terminal 6-histidine tag) (from UniProt P40763 1-770)

Kd (wild type Stat3): 703 nM
Kd (Stat3-3M [4]): 1210 nM
Molecule: CC(C)C[C@H](NC(=O)[C@@H](NC(=O)[C@H](Cc1ccc(OP(=O)(O)O)cc1)NC(=O)[C@@H](NC(=O)[C@H](CCC(N)=O)NC(=O)[C@@H](NC(=O)[C@H](CC(C)C)NC(=O)[C@@H](NC(=O)CCCCCNC(=O)CCCC[C@@H]1SC[C@@H]2NC(=O)N[C@@H]21)[C@@H](C)O)C(C)C)[C@@H](C)O)C(C)C)C(=O)N[C@@H](CCC(N)=O)C(=O)NCC(=O)N[C@@H](CC(=O)O)C(=O)N1CCC[C@H]1C(=O)O [compound 704, TLVQTpYVLQGDP] ({Biotin-Ahx}-TLVQT[pY]VLQGDP-OH)

Kd (wild type Stat3): 950 nM
Kd (Stat3-3M [4]): 1060 ± 150 nM
Molecule: CC(C)C[C@H](NC(=O)[C@H](Cc1ccc(OP(=O)(O)O)cc1)NC(=O)[C@H](Cc1c[nH]cn1)NC(=O)CNC(=O)[C@@H]1CCCN1C(=O)CNC(=O)[C@@H]1CCCN1C(=O)CCCCCNC(=O)CCCC[C@@H]1SC[C@@H]2NC(=O)N[C@@H]21)C(=O)N[C@@H](CCCNC(=N)N)C(=O)N[C@@H](CS)C(=O)N[C@@H](CC(=O)O)C(=O)N[C@@H](CO)C(=O)N[C@H](C(=O)O)[C@@H](C)O [compound 744, PGPGHpYLRCDST] ({Biotin-Ahx}-PGPGH[pY]LRCDST-OH)

binding result [5]: no binding
binding result (Stat3-3M [6]): no binding
binding result (Stat3-E638P [7]): no binding
Molecule: {d‑Biotin‑LC}-TLVQTYVLQGDP [Y704 non-phosphorylated dodecapeptide (G-CSFR)]

binding result [5]: no binding
binding result (Stat3-E638P [7]): no binding
Molecule: {d‑Biotin‑LC}-SDQVL[pY]GQLLGS [pY729 phosphododecapeptide (G-CSFR)]

binding result [8]: no binding
binding result (Stat3-3M [9]): no binding
binding result (Stat3-4M): no binding
binding result (Stat3-6M): no binding
binding result (Stat3-E638P [10]): no binding
Molecule: {d‑Biotin‑LC}-VQNPVYHNQPLN [Y1086 non-phosphorylated dodecapeptide (EGFR)]

binding result [5]: no binding
binding result (Stat3-E638P [7]): no binding
Molecule: {d‑Biotin‑LC}-PSPLS[pY]ENLTFQ [pY764 phosphododecapeptide (G-CSFR)]

binding result (Stat3-E638P [10]): no binding
B1: pY1148 (peptide)
peptide: {d‑Biotin‑LC}-VGNPE[pY]LNTVQP
notes: EGFR-based phosphopeptide; also called pY1148 phosphododecapeptide (EGFR)

binding result [11]: no binding
binding result (Stat3-E638P [10]): no binding
Molecule: {d‑Biotin‑LC}-LPVPE[pY]INESVP [pY1068-E phosphododecapeptide (EGFR Y1068, +3 Q to E)]

binding result [11]: no binding
binding result (Stat3-E638P [10]): no binding
Molecule: {d‑Biotin‑LC}-LPVPE[pY]INMSVP [pY1068-M phosphododecapeptide (EGFR Y1068, +3 Q to M)]

binding result (Stat3-E638P [12]): no binding (tested: 600 nM)
B2: pY1068 phosphododecapeptide (EGFR) (peptide)
peptide: LPVPEXINQSVP
modifications: phosphotyrosine at position 6 (EGFR Y1068); N-terminal biotin (d-Biotin-LC)
notes: also called Y1068 PDP; Y1068 phosphopeptide

binding result (Stat3-E638P [10]): no binding
B3: pY1086 phosphododecapeptide (EGFR) (peptide)
peptide: {d‑Biotin‑LC}-VQNPV[pY]HNQPLN
notes: also called Y1086 PDP; Y1086 phosphopeptide

binding result (Stat3-E638P [10]): no binding
B4: pY992 (peptide)
peptide: {d‑Biotin‑LC}-TDSNF[pY]RALMDE
notes: EGFR-based control phosphopeptide; also called pY992 phosphododecapeptide (EGFR)

binding result [11]: no binding
binding result (Stat3-E638P [10]): no binding
Molecule: {d‑Biotin‑LC}-LPVPE[pY]INRSVP (also called Y1068 Q-to-R PDP) [pY1068-R phosphododecapeptide (EGFR Y1068, +3 Q to R)]

binding result (Stat3-E638P [10]): no binding
B5: pY1173 (peptide)
peptide: {d‑Biotin‑LC}-LDNPD[pY]QQDFFP
notes: EGFR-based phosphopeptide; also called pY1173 phosphododecapeptide (EGFR)

binding result [11]: no binding
binding result (Stat3-E638P [10]): no binding
Molecule: {d‑Biotin‑LC}-LPVPE[pY]INLSVP [pY1068-L phosphododecapeptide (EGFR Y1068, +3 Q to L)]

binding result (Stat3-E638P [7]): no binding
Molecule: {d‑Biotin‑LC}-PGPGH[pY]LRCDST [pY744 phosphododecapeptide (G-CSFR)]

binding result [13]: no binding
binding result (Stat3-E638P [12]): no binding (tested: 600 nM)
binding result (Stat3-3M [9]): no binding
binding result (Stat3-4M): no binding
binding result (Stat3-6M): no binding
B6: Y1068 non-phosphorylated dodecapeptide (EGFR) (peptide)
peptide: {d‑Biotin‑LC}-LPVPEYINQSVP
notes: also called unphosphorylated Y1068 dodecapeptide

binding result (Stat3-E638P [7]): no binding
Molecule: {d‑Biotin‑LC}-TLVQT[pY]VLQGDP [pY704 phosphododecapeptide (G-CSFR)]
